Experimental data reported in patent US20230265179A1 (TWIST BIOSCIENCE, published 2023).
Substitutions are numbered along the chain they refer to.

T1: IL1RL2 over-expressed on Expi293 cells (UniProt Q9HB29 20-575, limits assumed)
T1 construct: whole, on cells; Target of the flow cytometry assay; MFI ratio is over-expressing cells over parent cells
T1 sequence (looked up): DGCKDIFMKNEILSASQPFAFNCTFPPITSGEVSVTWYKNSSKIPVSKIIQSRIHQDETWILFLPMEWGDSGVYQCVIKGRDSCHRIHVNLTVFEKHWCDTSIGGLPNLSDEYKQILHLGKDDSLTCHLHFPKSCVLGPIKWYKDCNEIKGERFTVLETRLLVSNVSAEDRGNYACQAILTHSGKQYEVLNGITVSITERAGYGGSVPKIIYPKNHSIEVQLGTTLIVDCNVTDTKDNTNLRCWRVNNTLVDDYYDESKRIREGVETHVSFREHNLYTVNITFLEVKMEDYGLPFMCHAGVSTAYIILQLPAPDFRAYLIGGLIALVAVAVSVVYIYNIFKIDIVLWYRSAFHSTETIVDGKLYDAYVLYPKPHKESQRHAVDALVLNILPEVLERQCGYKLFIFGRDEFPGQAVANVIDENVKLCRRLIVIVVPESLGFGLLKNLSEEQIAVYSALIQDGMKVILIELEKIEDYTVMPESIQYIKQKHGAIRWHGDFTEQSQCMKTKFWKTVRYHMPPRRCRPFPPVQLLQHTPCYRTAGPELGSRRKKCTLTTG

T2: IL1RL2 (UniProt Q9HB29 20-335, limits assumed)
T2 construct: Soluble analyte of the SPR runs
T2 sequence (looked up): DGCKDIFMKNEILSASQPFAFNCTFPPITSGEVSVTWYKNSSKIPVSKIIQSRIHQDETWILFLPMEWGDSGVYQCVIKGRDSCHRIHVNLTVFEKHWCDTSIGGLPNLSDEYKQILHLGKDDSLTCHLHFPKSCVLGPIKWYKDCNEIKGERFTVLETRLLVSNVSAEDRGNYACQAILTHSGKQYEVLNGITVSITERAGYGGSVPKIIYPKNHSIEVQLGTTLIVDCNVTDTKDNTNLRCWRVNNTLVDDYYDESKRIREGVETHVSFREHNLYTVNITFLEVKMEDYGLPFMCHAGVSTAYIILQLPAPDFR

B1: IL1RL2-285 (antibody, V domains shown)
VH: EVQLLESGGGLVQPGGSLRLSCAASGFTFSNFAMSWVRQAPGKGLEWVSTISGSGGSTSYADSVKGRFTISRDNSKNTLYLQMNSLRAEDTAVYYCAREKRSSGWYPHFDYWGQGTLVTVSS
VL: DIQMTQSPSSLSASVGDRVTITCRASQTIGTYLNWYQQKPGKAPKLLIYGGSRLQSGVPSRFSGSGSGTDFTLTISSLQPEDFATYYCQQSYSTPYTFGGGTKVEIK
notes: IgG2
B2: IL1RL2-299 (antibody, V domains shown)
VH: EVQLLESGGGLVQPGGSLRLSCAASGFIFSRYAMSWVRQAPGKGLEWVSAISESGGNTYYADSVKGRFTISRDNSKNTLYLQMNSLRAEDTAVYYCARQRYPGGSGSYADYWGQGTLVTVSS
VL: B1 VL with T28S, G30S, Y32D, G51V, R53S, Y92H, Y96F
notes: IgG2
B3: IL1RL2-298 (antibody, V domains shown)
VH: B1 VH with S30P, N31S, F32Y, S35A, T50A, G56S, T58P, S59Y
VL: DIQMTQSPSSLSASVGDRVTITCRASRSIDTYLNWYQQKPGKAPKLLIYGGSRLQSGVPSRFSGSGSGTDFTLTISSLQPEDFATYYCQQSYSTPPVTFGGGTKVEIK
notes: IgG2
B4: IL1RL2-302 (antibody, V domains shown)
VH: EVQLLESGGGLVQPGGSLRLSCAASGFPLSSYAMSWVRQAPGKGLEWVSLISGSGVSTYYADSVKGRFTISRDNSKNTLYLQMNSLRAEDTAVYYCARGWGAAEEWGQGTLVTVSS
VL: DIQMTQSPSSLSASVGDRVTITCRASQRISNYLHWYQQKPGKAPKLLIYAASRLHSGVPSRFSGSGSGTDFTLTISSLQPEDFATYYCQQSHTIPYTFGQGTKVEIK
notes: IgG2
B5: IL1RL2-165 (antibody, V domains shown)
VH: EVQLLESGGGLVQPGGSLRLSCAASGFTFSSAAMSWVRQAPGKGLEWVSAISGSGGNTYYADSVKGRFTISRDNSKNTLYLQMNSLRAEDTAVYYCARSYGGGFDYWGQGTLVTVSS
VL: DIQMTQSPSSLSASVGDRVTITCSGHNLGDKFASWYQQKPGKAPKLLIYSASNLESGVPSRFSGSGSGTDFTLTISSLQPEDFATYYCQSYASQGIHYVFGQGTKVEIK
notes: IgG2
B6: IL1RL2-180 (antibody, V domains shown)
VH: EVQLLESGGGLVQPGGSLRLSCAASGFTFSDYDMSWVRQAPGKGLEWVSAIEGAGSDTYYADSVKGRFTISRDNSKNTLYLQMNSLRAEDTAVYYCARLAPEFDYWGQGTLVTVSS
VL: DIQMTQSPSSLSASVGDRVTITCRASQSISSYVNWYQQKPGKAPKLLIYQNDKRPSGVPSRFSGSGSGTDFTLTISSLQPEDFATYYCQPSFYFPYAFGQGTKVEIK
notes: IgG2
B7: TSLP-17 (VHH)
VHH: EVQLVESGGGLVQPGGSLRLSCAASGTTFEIYPMGWFRQAPGKEREFVAAIHWNSGITYYADSVKGRFTISADNSKNTAYLQMNSLKPEDTAVYYCARDVFYFDSSGYSLWGQGTLVTVSS
notes: VHH-Fc (IgG2 Fc); not shown: IgG2 Fc of the VHH-Fc format
B8: TSLP-5 (VHH)
VHH: EVQLVESGGGLVQPGGSLRLSCAASGVTLDTDAMGWFRQAPGKEREFVAWINNRGTTDYADSVKGRFTISADNSKNTAYLQMNSLKPEDTAVYYCARVSQWLLGGPANWGQGTLVTVSS
notes: as for B7
B9: TSLP-16 (VHH)
VHH: EVQLVESGGGLVQPGGSLRLSCAASGFSLDDYAMGWFRQAPGKEREGVATIAGGYTYYADSVKGRFTISADNSKNTAYLQMNSLKPEDTAVYYCAAFDGYTGSDWGQGTLVTVSS
notes: not shown: IgG2 Fc of the VHH-Fc format
B10: TSLP-9 (VHH)
VHH: EVQLVESGGGLVQPGGSLRLSCAASGPMSSSAVMGWFRQAPGKEREAVALGWSGGSTYYADSVKGRFTISADNSKNTAYLQMNSLKPEDTAVYYCAIHTSREIWGQGTLVTVSS
notes: as for B7
B11: IL1RL2-153 (antibody, V domains shown)
VH: EVQLLESGGGLVQPGGSLRLSCAASGFIFQWYDMGWVRQAPGKGLEWVSSIRGSSSSTYYADSVKGRFTISRDNSKNTLYLQMNSLRAEDTAVYYCARDLGDYWGQGTLVTVSS
VL: DIQMTQSPSSLSASVGDRVTITCRASQNIRSYLNWYQQKPGKAPKLLIYDDIDRPSGVPSRFSGSGSGTDFTLTISSLQPEDFATYYCQTWGPGIRVFGQGTKVEIK
notes: IgG2
B12: TSLP-13 (VHH)
VHH: EVQLVESGGGLVQPGGSLRLSCAASGFTFDDNDMGWFRQAPGKEREFVGAISWSGNTTYYKYYADSVKGRFTISADNSKNTAYLQMNSLKPEDTAVYYCSNQYGWGQGTLVTVSS
notes: as for B7
B13: IL1RL2-179 (antibody, V domains shown)
VH: EVQLLESGGGLVQPGGSLRLSCAASGFTFSPRRMSWVRQAPGKGLEWVSTIDDLGRHTYYADSVKGRFTISRDNSKNTLYLQMNSLRAEDTAVYYCAKLANSLLFDYWGQGTLVTVSS
VL: DIQMTQSPSSLSASVGDRVTITCRASENIYSNLAWYQQKPGKAPKLLIYAASDLESGVPSRFSGSGSGTDFTLTISSLQPEDFATYYCGATDLSPWSIVFDQGTKVEIK
notes: IgG2
B14: IL1RL2-17 (VHH)
VHH: EVQLVESGGGLVQPGGSLRLSCAASGRTFSTYDMGWFRQAPGKERELVASITFGGDTNYADSVKGRFTISADNSKNTAYLQMNSLKPEDTAVYYCADVNGDWGQGTLVTVSS
notes: VHH-Fc based on IgG2 Fc
B15: IL1RL2-15 (VHH)
VHH: B14 VHH with L47F, S50V, T52N, F53Y, G54R, D56S, N58T
notes: VHH-Fc based on IgG2 Fc
B16: IL1RL2-5 (VHH)
VHH: B14 VHH with S30D, T31S, F53Y, G54L, D56R
notes: VHH-Fc based on IgG2 Fc
B17: IL1RL2-187 (antibody, V domains shown)
VH: EVQLLESGGGLVQPGGSLRLSCAASGFTLSSYAMSWVRQAPGKGLEWVSSISSSGGYTGYADSVKGRFTISRDNSKNTLYLQMNSLRAEDTAVYYCAKSFSFFDYWGQGTLVTVSS
VL: DIQMTQSPSSLSASVGDRVTITCRASQSISSYVNWYQQKPGKAPKLLIYGSSYLQSGVPSRFSGSGSGTDFTLTISSLQPEDFATYYCQQNNNWPTTFGQGTKVEIK
notes: IgG2
B18: IL1RL2-300 (antibody, V domains shown)
VH: EVQLLESGGGLVQPGGSLRLSCAASGFTFSGYAMNWVRQAPGKGLEWVSTISGSGVSTYYADSVKGRFTISRDNSKNTLYLQMNSLRAEDTAVYYCAREQHLVEGDFDNWGQGTLVTVSS
VL: B4 VL with A25T, R28S, N31S, H34N, R53S, H55Q, H92Y, T93N
notes: IgG2
B19: TSLP-10 (VHH)
VHH: EVQLVESGGGLVQPGGSLRLSCAASGFTLDDYVMGWFRQAPGKEREGVATIAGGGTYYADSVKGRFTISADNSKNTAYLQMNSLKPEDTAVYYCASSGSYYPGHFEWGQGTLVTVSS
notes: as for B7

Assays:
[1] = biological target: T1, IL1RL2 over-expressed on Expi293 cells; test: flow cytometry titration on over-expressing Expi293 cells
Description: (§1) All incubations and washes were in buffer containing PBS+1% BSA. MFI Ratio is defined by the mean fluorescence intensity (MFI) of the cytokine over-expressing Expi293 cell over the Expi293 parent cell. […] EC50 was calculated in GraphPad Prism.

[2] = biological target: T1, IL1RL2 over-expressed on Expi293 cells; test: flow cytometry, over-expressing Expi293 vs parent cells, 100 nM antibody;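 further: ratio is mean fluorescence intensity on over-expressing Expi293 cells divided by that measured on parental Expi293 cells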
Description: as §1

TSLP = biological target: T3, TSLP (UniProt Q969D9 29-159); test: SPR, Carterra LSA, antibody amine-coupled, 1:1 model
T3 construct: Soluble analyte of the SPR assay
Description: (§2) SPR experiments were performed on a Carterra LSA SPR biosensor equipped with a HC30M chip at 25° C. in HBS-TE. Antibodies were diluted to 10 μg/mL and amine-coupled to the sensor chip by EDC/NHS activation, followed by ethanolamine HCl quenching. Increasing concentrations of analyte were flowed over the sensor chip in HBS-TE with 0.5 mg/mL BSA with 5-minute association and 15-minute dissociation. Following each injection cycle the surface was regenerated with 2× 30-second injections of IgG elution buffer (Thermo). Data were analyzed in Carterra's Kinetics Tool software with 1:1 binding model.

[3] = biological target: T4, TSLP on over-expressing Expi293 cells (UniProt Q969D9 29-159, limits assumed); test: flow cytometry titration on TSLP over-expressing Expi293 cells
T4 construct: whole, on cells; Target of the flow cytometry assay; also called cytokine over-expressing Expi293 cells
Description: as §1

[4] = biological target: T4, TSLP on over-expressing Expi293 cells; test: flow cytometry, 100 nM, TSLP over-expressing Expi293 over parent cells
Description: as §1

IL1RL2 = biological target: T2, IL1RL2; test: SPR (Carterra LSA), antibody immobilised, 1:1 model
Description: as §2

Row | Binder | EC50 [1] | 100 nM FACS (MFI Ratio) [2] | Kd (TSLP) | koff (TSLP) | kon (TSLP) | EC50 [3] | 100 nM (MFI Ratio) [4] | further results
1 | B1 | 618 nM | 214 | – | – | – | – | – | –
2 | B2 | 2.25 nM | 19.2 | – | – | – | – | – | –
3 | B3 | 100 nM | 49.6 | – | – | – | – | – | –
4 | B4 | 1.1 nM | 192 | – | – | – | – | – | –
5 | B5 | 34.5 nM | 707 | – | – | – | – | – | –
6 | B6 | 15.2 nM | 21.5 | – | – | – | – | – | –
7 | B7 | – | – | 11.2 nM | 0.00042 s⁻¹ | 37500 M⁻¹ s⁻¹ | 0.12 nM | 154 MFI ratio | –
8 | B8 | – | – | 24.5 nM | 0.000759 s⁻¹ | 31000 M⁻¹ s⁻¹ | 0.73 nM | 149 MFI ratio | –
9 | B9 | – | – | 11.9 nM | 0.00143 s⁻¹ | 120000 M⁻¹ s⁻¹ | 0.58 nM | 10 MFI ratio | –
10 | B10 | – | – | 31 nM | 0.00151 s⁻¹ | 48600 M⁻¹ s⁻¹ | 0.73 nM | 8.6 MFI ratio | –
11 | B11 | 445 nM | 350 | – | – | – | – | – | –
12 | B12 | – | – | 41.3 nM | 0.0013 s⁻¹ | 31600 M⁻¹ s⁻¹ | 0.37 nM | 120 MFI ratio | –
13 | B13 | 27.5 nM | 17.7 | – | – | – | – | – | –
14 | B14 | 11.2 nM | 15.6 | – | – | – | – | – | Kd (IL1RL2): 1.45 nM; koff (IL1RL2): 0.00024 s⁻¹; kon (IL1RL2): 166000 M⁻¹ s⁻¹
15 | B15 | 0.622 nM | 14.4 | – | – | – | – | – | Kd (IL1RL2): 4.13 nM; koff (IL1RL2): 0.000218 s⁻¹; kon (IL1RL2): 52700 M⁻¹ s⁻¹
16 | B16 | 13.4 nM | 13.9 | – | – | – | – | – | Kd (IL1RL2): 2.72 nM; koff (IL1RL2): 0.000343 s⁻¹; kon (IL1RL2): 126000 M⁻¹ s⁻¹
17 | B17 | 2.26 nM | 45 | – | – | – | – | – | –
18 | B18 | 1.57 nM | 23.9 | – | – | – | – | – | –
19 | B19 | – | – | 8.43 nM | 0.000805 s⁻¹ | 95500 M⁻¹ s⁻¹ | 1.4 nM | 67.8 MFI ratio | –
